Assay: yeast display, Sf9 membrane polyspecificity reagent, FACS + sequencing; frameworks hold sequencing errors
How it was run: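 In a synthetic yeast display library (Saccharomyces cerevisiae BJ5465), nanobody expression was induced with galactose for 36–48 hours. FACS gates were set low and high (top ~1%) using anti-HA fluorescence for expression and streptavidin fluorescence for binding of the Sf9 membrane reagent. Each polyreactivity label is drawn from the gate of origin.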

| Sequence | polyreactivity (PSR sort gate) |
| --- | --- |
| QVQLEESGGGLVQAGGSLRLSCAASGIIFQRNDMGLYRQAPGKERELVANIRDGGITYADSVKGRFTISRDNAKNTVYLQMNSLKPEDTAVYYCARDDTSPGYCDQSSNAAYYYWGQGTQVTVSS | low polyreactivity |
| QVQLVESGGGLVQAGGSLRISCADSASIFWGYAMGWYREAPGKERELVATIRNRGGSTYYADSVKGRFTISRDNAKYTVYLQMNSLKPEDTAVYYCAAVSYRQYYGWGNYWGQVTQVTVSS | low polyreactivity |
| QVQLVESGGGLVQAGGSLRLSCAASGSIFNSYAMGWYRQAPGKERELVAAISIRGTRTYYADSVKGRFTISRDNAKNTVYLQMNSLKPEDTAVYYCAADASYTEGMDYWGQGTQVTVSS | high polyreactivity |
| QVQLVESGGGLVQAGGSLRLSCAASGGTFLINAMGWYRQAPGKERELVATITSGGTTYYADSVKGRFTISRDNAKNTVYLQMNSLKPEDTAVYYCATRGKGRYGYDSWGQGTQVTVSS | low polyreactivity |
| QVQLVESGGGLVQAGGSLRLSCAASGIIFPWYTMGWYRQAPGKERELVAAISSGGRTNYADSVKGRFTISRDNAKNTVYLQMNSLKPEDTAVYYCAAKFYRDRDWGQGTQVTVSS | high polyreactivity |
| QVQLVESGGGLVQAGGSLRLSSAASGRTFIVYAMGWYRQQPGKERELVARISSGSRTSYADSVKGRFTISRDNAKNTVYLQMNSLKPEDTAVYYCAKSRVIKYEFDYWGQGTQVTVSS | low polyreactivity |
| QVQLVESWGGLFQAGGSLRLSCAASGRTFSYNAMGWYRQAPGKERELVAAMTWRGSTTYYADSVKGRFTISRDHAKNTVYLQMNSLKPEDTAVYYCADATGQPYILDYWGQGTQVTVSS | low polyreactivity |
| QVQLVESGGGLVQAGGSLRLSCAASGSIFSHYAMGWYRQAPGKERELVAAISSSGNTYYADSVKGRFTISRDNAKNTVYLQMNSLKPEDTAVYYCNAVVYSPYRYEYWGQGTQVTVSS | low polyreactivity |
| QVQLVESGGGLVQAGGSLRLSCAASGRIFKIYSMGWYRQAPGKERELVAAISYRGTSTYYADSVKGRFTISRDNAKNTVYLQMNSLKPEDTAVYYCARRDTYTRYYWGQGTQVTVSS | high polyreactivity |
| QVQLVESGGGLVQAGGSLRLSCAASGFTFRYNAMGWYRQAPGKERELVAAISSDGITSYADSVKGRFTISRDNAKNTVYLQMNSLKPEDTAVYYCAADWRWYSAWHFGYWGQGTQVTVSS | high polyreactivity |
| QVQLVESGGGLVQAGGSLRLSCAASGSTFGGYAMGWYRQAPAKERELVAAISTSGGNTYYADSVKGRFTISRDNAKNTVYLQMNRLKPEDTAVYYCARDRVSWGGQDSWGQGTQVSVSS | high polyreactivity |
| QVQLVESGGGLVQAGGSLRISCASSVRTFAWNAMGWYRQAPGKERELVAVITSGVSTNYADSVKGRFTISRDNANNTVYLQMNSLKPEDTAVYYCAARSWVYSVIGDNWGLGTQVTVSS | low polyreactivity |
| QVQLVESGGGLVQAGGSLRLSCAASGRTIKYYAMGWYRQAPGKESELVAAISSSGGRTNYADSVKGRFTISRDNANNTVYLQMNSLKPEDTAVYYCAARFYKTYPRMNYWGQGTQVTVSS | high polyreactivity |
| QVQLVESGGGLVQAGGSLRLSCAASGSTFIFYSMGWYRQAPGKERELVAAITSSGGSTYYADSVKGRFTISRDNANNTVYLQMNSLKPEDTAVYYCITLAYTYGSKFGYWGQGTQVTVSS | low polyreactivity |
| QVQLVESGGGLVQAGGSLRLSCAASGSTFVSNAMGWYRQAPGKERELVAAISKGDGNTYYADSVKGRFTISRDNAKNTVYLQMNSLKPEDTAVYYCAATYHYYSRWYDYWGQGTQVTVSS | high polyreactivity |
| QVQLVESGRGLFQAGGSLRLSCAASGSTFSGYAMGWYRPAPGKERELVATITRRGGNTYYADSVKGRFTISRDNAKNTVYLQMNSLKPEDTAVYYCSKDGRVHSPYDYWGQGTQVTVSS | low polyreactivity |
| QVQLVESGGGLVQAGGSLRLSCAASGRIYPGYTMGWYRQAPGKERELVAGISRSGGRTYYADSVKGRFTISRDNAKNTVYLQMNSLKPEDTAVYYCAADGYPGRRYTGMDYWGQGTQVTVSS | high polyreactivity |
| QVQIVESGGGLVQAGGSLRLTCAASGFTFTDYAMGWYRQAPGIERELVAVITYDSTYYADSVKGRFTISRDNAKNTVSLHMNSLKPEDTAVYYCAADSYDWGEFDYWGQGTQVTVSS | low polyreactivity |
| QVQLVESGAGLVQAGGSLSLSCAASGRTIVTNAMGWYRQAPGKERELVAAINGRGDNTYYADSVKGRFTISRDNAKNTFYLQMNSLKPEDTAVYYCAVRRGYHSHTKYYYWGLGTQVTVSS | high polyreactivity |
| QVQLVESGGGLVQAGGSLRLSCAASGSIFSYYTMGWYRQAPGKERELVAAITKSGGSTYYADSVKGRFTISRDNAKNTVYLQMNSLKPEDTAVYYCAASYGGYPKGNYWGQGTQVTVSS | high polyreactivity |
| QVQLVESGGGLVQAGGSLRLSCASSGGIFASNVMGWYRQAPGKERELVAAISSITGSTYYADSVKGRFTISRDNAKNTVYLQMNSLKPEDTAVYYCAAYVQFAKIRFDYWGQGTQVTVSS | high polyreactivity |
| QVQLVESGGGLVQAGGSLRLSCAASGFIFYSNAMGWYRPAPGKERELVAAISWGGGRTYYADSVKGRFTISRDNAKNTVYLQMNSLKPEDTAVYYCAAAGYHSGKGGGYWGQGTQVTVSS | high polyreactivity |

| Sequence | polyreactivity (PSR sort gate) |
| --- | --- |
| QVQLVESGGGLVQAGGSLRLSCAASGSTFGFYAMGWYRQAPGKERELVAAISGRGGSTYYADSVKGRFTISRDNAKNTVYLQMNSLKPEDTAVYYCAAKYYGEMYYWGQGTQVTVSS | low polyreactivity |
| QVQLVESGGGLVQAGGSLRLSCAASGRTFQINAMGWYRQAPGKERELVAAITWSGGSTYYADSVKGRFTISRDNAKNTVYLQMNSLKPEDTAVYYCNKRYRAYATLNLIAGYNYWGQGTQVTVSS | low polyreactivity |
| QVQLVESGGGLVQAGGSLRLSCAASGFTLSRYAMGWYRQAPGKERELVAAIRWSGGSTYYADSVKGRFTISRDNAKNTVYLQMNSLKPEDTAVYYCATRYYLKFLDGYNYWGQGTQVTVSS | high polyreactivity |
| QVQLVESGGGLVQAGGSLRLSSAASGLTFQEYAMGWYRQAPGKERELVAAISWSGGSTYYADSVKGRFTISRDNAKNTVYLQMNSLKPEDTAVYYCAAEAYEEYITGWYAYDYWGQGTQVTVSS | high polyreactivity |
| QVQLVESGGGLVQAGGSLRLSCAASGRILTTNAMGRYRQAPGKERELVATISTGSGRTYYADSVKGRFTISRDNAKNTVYLQMNSLKPEDTAVYYCAASRTLRKHRYEYWGQGTQVTVSS | high polyreactivity |
| QVQLVESGGGLVQAGGSLRLSCAASGFIFGYNGMGWYRQAPGKERELVAGITYSDGSTYYADSVKGRFTISRDNAKNTVYLQMNSLKPEDTAVYYCAVDVIYYWAEDYDYWGQGTQVTVSS | low polyreactivity |
| QVQLVESGGGLVQAGGSLRLSCAASGSIFYRNVMGWYRQAPGKERELVAAITGSGGITYYADSVKGRFTISRDNAKNTVYLQMNSLKPEDTAVYYCNKTSFLVKLDYWGQGTQVTVSS | low polyreactivity |
| QVQLVESGGGLVQAGGRLRLSCAASGGIFDTYVMGRYRQAPGKERELVAGISSTGGSTYYADSVKGRFTISRDNAKNTVYLQMNSLKPEDTAVYYCNAEAGGFDYYGKTYRYGDYWGQGTQVTVSS | low polyreactivity |
| QDQLVESGGGLVQAGGSLRLSCAASGFIFYFYAMVWYRQAPGKERELVAAISSGGSTNYADSVKGRFTISRDNAKNTVYLQMNSLKPEDTAVYYCNKGGYYKYFLNDYNYWGQGTQVTVSS | low polyreactivity |
| QVQLVESGGGLVQAGGSLRLSCAPSGITFFWKAKGWYRQAPGKERELVAAISSGAGTTYADSVKGRFTISRDNAKNTVYLQMNSLKPEDTAVYFCAARRYRYAYGPYNYWGQGSQVTVSS | low polyreactivity |
| QVQLVESGGGLVQAGGSLRLSCAPSGRTFQQYAMGCYRQAPGKDREFVAAITFSGGTTYFADSVKGRFTISRDNAKNTVYFQMNSLKPEDTAVYYCAADIYYWSFYYSRYDYWGQGTQVTVSS | high polyreactivity |
| QVQLVESGGGLVQAGGSLRLSCAASGRTLGANAMGWYRQAPGKEREFVAAISYSDTRTYADSVKGRFTISRDNAKNTVYFQMNSLKPEDTAVYYCAADYYTWYGILYDYWGQGTQVTVSS | low polyreactivity |
| HVLLVESGGGLVQAGGSLRLSFAATAFTFTYYTMGSYRQAPGKETELVAAITSSGGSTYYADSVMGRFTISRDNANNTVYLQMNSLKPEDTAVYYCAASRYSTRFGARVYWGQVTQVTVSS | high polyreactivity |
| QVQLVESGGGLVQAGCSLRLSCAASGITFRRYTMGWYRPAPGKERELVATISLSDGNTYYADSVKGRFTISRDNAKNTVYLQMNSLKPEDTAVYYCTADVRYGRDHWGQATQVTVSS | low polyreactivity |
| QDQLVESGGGLVQAGGSLRLSCAASGNNFFPYAMGWYRQAPGTEREFVAAINWSGGSTYYADSVKGRFTISRDNAKNTVYLQMNSLKPEDTAVYYCAASSGKWGHGYWGQGTQVTVSS | high polyreactivity |
| QVQLVESGGGLVQAGGSLRLSCAASGGTFVPNAMGWYRQAPGKERELVAAITWSGARTYYADSVKGRFTISRDNAKNTVYLQMNSLKPEDTAVYYCAAVYNYYIVYEYYYWGQGTQVTVSS | high polyreactivity |
| QVQLVESGGGLVQAGGSLRLSCAASGSTFTLNAMGWYRQAPGKERELVARISSGGGSTYYADSVNGRFTISRDNAKNTVYLQMNSLKPEDTAVYYCNAGNYRDKSYYWGQGTQVTVSS | low polyreactivity |
| QDQLVESGGGLVQAGGSLRLSCAASGHIFPYNAMGWYRQAPGKEREIVAASSFRGGSTYYADSVKGRFTISRDNAKNTVYLQMNSLKPEDTAVDYCAKRSYPWGQGTQVTVSS | low polyreactivity |
| QVQLVESRVGLVQAGGSLRLSCAASGITFYGYAMGWYRQAPGKERELVAAITSGGSTYYADTVKGRFTISRDNAKNTVYFQMNSLKPEDTAVYYCAAYLRRAYVHSYERYYWGQGTQVTVSS | low polyreactivity |
| QVQLVESGGGLVQAGGSLRLSCAASGSIFPQYAMGWYRQAPGTERELVDAITWSGSRTRYADSVKGRFTISRDNAKNTVYLQMNSLKPEDTAVYYCAARFNGQTYYYCGQGTQVTVSS | high polyreactivity |
| QVQLVESGGGLVQAGGSLRLSCAASGRIFEPYAMGWYRQAPGKERELFAAITSGGSTDYADSVKGRFTISRDNAKNTVYLQMNSLKPEDTAVYYCAARVTYGGIPARQIYDYWGQGTQVTVSS | low polyreactivity |

Reference: the nanobody polyreactivity screen of Harvey et al. (2022)
